The results in this text go back to article PMC7229662 (Proceedings of the National Academy of Sciences of the …, 2020).

The data set deals with the molecule itself. As to the kind of experiment: cryo-EM structure.

B1: C331S variant of polycystin-2 (residues 53 to 792) (natural protein, human, UniProt Q13563 53-792, looked up)
chain: EIEMQRIRQAAARDPPAGAAASPSPPLSSCSRQAWSRDNPGFEAEEEEEEVEGEEGGMVVEMDVEWRPGSRRSAASSAVSSVGARSRGLGGYHGAGHPSGRRRRREDQGPPCPSPVGGGDPLHRHLPLEGQPPRVAWAERLVRGLRGLWGTRLMEESSTNREKYLKSVLRELVTYLLFLIVLCILTYGMMSSNVYYYTRMMSQLFLDTPVSKTEKTNFKTLSSMEDFWKFTEGSLLDGLYWKMQPSNQTEADNRSFIFYENLLLGVPRIRQLRVRNGSSSIPQDLRDEIKECYDVYSVSSEDRAPFGPRNGTAWIYTSEKDLNGSSHWGIIATYSGAGYYLDLSRTREETAAQVASLKKNVWLDRGTRATFIDFSVYNANINLFCVVRLLVEFPATGGVIPSWQFQPLKLIRYVTTFDFFLAACEIIFCFFIFYYVVEEILEIRIHKLHYFRSFWNCLDVVIVVLSVVAIGINIYRTSNVEVLLQFLEDQNTFPNFEHLAYWQIQFNNIAAVTVFFVWIKLFKFINFNRTMSQLSTTMSRCAKDLFGFAIMFFIIFLAYAQLAYLVFGTQVDDFSTFQECIFTQFRIILGDINFAEIEEANRVLGPIYFTTFVFFMFFILLNMFLAIINDTYSEVKSDLAQQKAEMELSDLIRKGYHKALVKLKLKKNTVDDISESLRQGGGKLNFDELRQDLKGKGHTDAEIEAIFTKYDQDGDQELTEHEHQQMRDDLEKEREDLDLD
B1: the “stoichiometry N” value came to 4.
